According to US20250340655A1, “EPHA2-TARGETING ANTIBODIES AND THEIR APPLICATIONS IN CANCER TREATMENT” (TAIPEI MEDICAL UNIVERSITY, priority 2022, published 2025):
Square brackets hold non-standard residues; d marks the D form. Peptide text beside a SMILES is read from it. * marks the point of attachment. Dolaproine = CO[C@@H]([C@@H]1CCCN1)[C@@H](C)C(=O)O; Dil = CC[C@H](C)[C@H](NC)[C@@H](CC(=O)O)OC; X1 = C[C@@H](N*)[C@@H](O)c1ccccc1; NMeV = CN[C@H](C(=O)O)C(C)C

Assays:
hTERT HPNE = assay: Growth inhibitory response to serially diluted MMAE, normal pancreatic cell line; format: cell-based; conditions: serially diluted MMAE (FIG. 10)
[1] = Int J Mol Sci. 21 (9): 3286 (2020); cited from earlier work
BxPc-3 [2] = assay: Transwell migration assay, BxPc-3; format: cell-based, human; conditions: BxPc-3, transwell migration assay (FIG. 5B)
Procedure: (§1) PAAD cells were seeded at 5×10^4 cells/well in a 24-well Transwell cell migration plate (Corning) and incubated with scFv for 2 days. In the assay, recombinant ephrin-A1 (Sino Biological) was added as a positive control. After scFv treatment, the cells were fixed with frozen 100% methanol for 10 min and stained with 0.01% crystal violet for 1 h at room temperature. After the pate was washed with ddH2O, the upper-layer cells were removed using cotton swabs. Cell staining was imaged using a microscope and analyzed using ImageJ. For the scratch wound healing assay, PAAD cells were seeded in a 6-well culture plate. The seeded cells in the well were scratched with a pipette tip to simulate a wound. After treatment with scFv and incubation for 36 or 72 h, the cells were imaged using a microscope. The wound areas were analyzed using ImageJ.

[3] = target: T1, endogenous EphA2 molecules on 4 pancreatic cancer cell lines (AsPc-1, BxPc-3, Panc-1, Mia PaCa-2) (Homo sapiens, UniProt P29317); assay: Flow cytometry binding on pancreatic cancer cells; conditions: 4 PAAD cell lines (FIG. 3E)
T1 construct: with endogenous EphA2 molecule expression; endogenous in cells; host or cells: AsPc-1, BxPc-3, Panc-1, Mia PaCa-2
Procedure: Four PAAD cells AsPc-1, BxPc-3, Panc-1, and Mia PaCa-2 with endogenous EphA2 molecule expression, were analyzed through flow cytometry to determine the binding reactivity of indicated scFvs. Freshly prepared cancer cells were harvested and washed twice with PBS. Then, individual scFv was added and incubated at room temperature for 1 h. Bound scFv was visualized using goat anti-chicken light chain antibodies and donkey anti-goat antibodies conjugated with fluorescein isothiocyanate (FITC; Jackson ImmunoResearch Laboratories). An irrelevant scFv was used as the negative control, and commercially available goat anti-EphA2 antibodies were used as the positive control (R&D Systems) in the assay. The results were analyzed using a FACS can flow cytometer (BD Biosciences, Systems and Reagents).

Mia PaCa-2 [4] = assay: MTS cell proliferation assay, Mia PaCa-2; format: cell-based, human; design: dose or concentration left out as unconfirmed; conditions: Mia PaCa-2, MTS, Day 5, scFv
Procedure: (§2) PAAD cell proliferation was measured using a 3-(4,5-dimethylthiazol-2-yl)-5-(3-carboxymethoxyphenyl)-2-(4-sulfophenyl)-2H-tetrazolium (MTS) Cell Proliferation Assay Kit (Promega). The cells were seeded in a 96-well culture plate at a density of 5000 cells/well for attachment. Then, scFv at various concentrations was added to the cell culture and incubated for 5 days. Finally, MTS and phenazine methosulfate solutions were added and incubated for 90 min for development. After the SDS reagent was added to stop the reaction, the absorbance of each well was measured by determining the OD at 490 nm.

[5] = target: T2, natural EphA2 molecule in the lysate of 4 pancreatic cancer cell lines (Homo sapiens, UniProt P29317); assay: Immunoprecipitation (pull down) from PAAD cell lysates; format: binding; conditions: lysates of four PAAD cell lines (FIG. 3F)
T2 construct: with endogenous EphA2 molecule expression; endogenous in cells; host or cells: AsPc-1, BxPc-3, Panc-1, Mia PaCa-2
Procedure: For the immunoprecipitation assay, 300 μg of each PAAD cell lysate was incubated with 50 μg of antiEphA2 scFv (scFv was fused with a His tag) at 4° C. overnight. On the next day, 30 μL of Ni^2+-charged sepharose was added to the mixture and incubated for 1 h at 4° C. After three rounds of washing with NiNTA wash buffer (50 mM NaH2PO4, 300 mM NaCl, and 10 mM imidazole, pH 8.0), the scFv-bound sepharose beads were resuspended in 50 μL of PBS buffer. Subsequently, the sepharose solution was denatured at 95° C. for 10 min and analyzed using SDS-PAGE. After the proteins were transferred to a polyvinylidene fluoride membrane, the membrane was detected using the anti-EphA2 antibody (R&D Systems) and anti-His (Proteintech Group) antibody at 4° C. overnight. On the next day, after washing with PBST, the membrane was incubated with HRP-conjugated secondary antibody (Jackson ImmunoResearch Laboratories). Finally, the chemiluminescence substrate was added for luminal signal detection.

BxPc-3 and Mia PaCa-2 [6] = assay: Transwell migration assay (FIG. 5A); format: cell-based, human; design: dose or concentration left out as unconfirmed; conditions: scFv for 2 days
Procedure: as §1

BxPc-3 [7] = assay: MTS cell proliferation assay, BxPc-3; format: cell-based, human; design: dose or concentration left out as unconfirmed; conditions: BxPc-3, MTS, Day 5, scFv
Procedure: as §2

EphA2 = EphA2 (Homo sapiens, UniProt P29317); assay: Western blotting under reducing (SDS-PAGE) and non-reducing (Native-PAGE) conditions; format: binding; conditions: Native-PAGE vs SDS-PAGE (FIG. 3D)
Procedure: The recombinant EphA2 protein was transferred onto nitrocellulose membranes (GE Healthcare Life Sciences) after electrophoresis using sodium dodecyl sulfate-polyacrylamide gel (SDS-PAGE) or nativepolyacrylamide gel (Native-PAGE), and the membranes were incubated with using purified scFv antibodies to determine binding reactivity. The membranes were blocked with 5% skim milk and then incubated with scFv at room temperature for 1 h. After washing with PBST, the membranes were detected and developed using HRP-conjugated goat anti-chicken light chain antibodies. Finally, the 3,3′-diaminobenzidine substrate was added for color development until the desired color intensity was reached.

BxPc-3 and Mia PaCa-2 [8] = assay: Scratch wound healing assay (FIG. 5C); format: cell-based, human; conditions: after 36 and 72 h of treatment with scFv
Procedure: as §1
(§3) For the scratch wound healing assay, PAAD cells were seeded in a 6-well culture plate. The seeded cells in the well were scratched with a pipette tip to simulate a wound. After treatment with scFv and incubation for 36 or 72 h, the cells were imaged using a microscope. The wound areas were analyzed using ImageJ.

AsPc-1 = assay: MTS cell proliferation assay, AsPc-1; format: cell-based, human; design: dose or concentration left out as unconfirmed; conditions: AsPc-1, MTS, Day 5, scFv
Procedure: as §2

Panc-1 [9] = assay: MTS cell proliferation assay, Panc-1; format: cell-based, human; design: dose or concentration left out as unconfirmed; conditions: Panc-1, MTS, Day 5, scFv
Procedure: as §2

BxPc-3 [10] = assay: Scratch wound healing assay, BxPc-3; format: cell-based, human; conditions: BxPc-3, wound healing assay (FIG. 5D)
Procedure: as §1, §3

Panc-1 [11] = assay: Transwell migration assay, Panc-1; format: cell-based, human; conditions: Panc-1, transwell migration assay (FIG. 5B)
Procedure: as §1

Mia PaCa-2 [12] = assay: Scratch wound healing assay, Mia PaCa-2; format: cell-based, human; conditions: Mia PaCa-2, wound healing assay (FIG. 5D)
Procedure: as §1, §3

T1 sequence (P29317 24-976): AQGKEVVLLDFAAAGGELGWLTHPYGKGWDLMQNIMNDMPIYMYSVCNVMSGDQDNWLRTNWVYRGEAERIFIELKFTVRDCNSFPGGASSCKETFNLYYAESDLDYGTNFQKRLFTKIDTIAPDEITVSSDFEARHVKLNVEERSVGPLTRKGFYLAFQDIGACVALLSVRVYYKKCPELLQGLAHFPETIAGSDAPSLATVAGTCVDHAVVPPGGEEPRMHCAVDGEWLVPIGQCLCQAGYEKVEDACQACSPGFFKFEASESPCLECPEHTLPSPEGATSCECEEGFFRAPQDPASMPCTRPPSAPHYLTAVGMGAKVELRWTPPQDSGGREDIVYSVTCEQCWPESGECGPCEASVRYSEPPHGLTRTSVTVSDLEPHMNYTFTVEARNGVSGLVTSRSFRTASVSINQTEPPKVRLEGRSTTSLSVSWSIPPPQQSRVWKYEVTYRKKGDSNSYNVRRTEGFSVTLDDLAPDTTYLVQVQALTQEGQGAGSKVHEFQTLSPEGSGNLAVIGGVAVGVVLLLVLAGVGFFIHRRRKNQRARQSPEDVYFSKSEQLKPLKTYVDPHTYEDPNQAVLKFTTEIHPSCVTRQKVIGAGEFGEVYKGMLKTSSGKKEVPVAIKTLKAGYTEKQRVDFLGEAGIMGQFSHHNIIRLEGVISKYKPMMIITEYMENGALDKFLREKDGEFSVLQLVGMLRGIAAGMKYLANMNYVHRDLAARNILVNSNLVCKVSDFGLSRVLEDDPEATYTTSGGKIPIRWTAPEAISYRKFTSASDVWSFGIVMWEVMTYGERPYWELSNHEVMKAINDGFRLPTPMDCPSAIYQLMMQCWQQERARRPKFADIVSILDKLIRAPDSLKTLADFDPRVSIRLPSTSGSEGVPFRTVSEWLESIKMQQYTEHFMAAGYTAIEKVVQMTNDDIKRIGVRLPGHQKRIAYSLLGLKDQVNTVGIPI
T2 sequence (P29317 24-976): as above
EphA2, sequence (P29317 24-976): as above

| binding response to EphA2 molecules on cancer cells [3] | pull down of EphA2 from cell lysates [5] | Molecule | growth inhibition of normal pancreatic cell line (hTERT HPNE) | potency relative to doxorubicin [1] | migration inhibition (BxPc-3 [2]) | growth inhibition (Mia PaCa-2 [4]) | number of migrated cancer cells (BxPc-3 and Mia PaCa-2 [6]) | growth inhibition (BxPc-3 [7]) | recognition of EphA2 protein in native and denatured form (EphA2) | migration of cancer cells in wound healing assay (BxPc-3 and Mia PaCa-2 [8]) | growth inhibition (AsPc-1) | growth inhibition (Panc-1 [9]) | migration inhibitory effect (BxPc-3 [10]) | migration inhibition (Panc-1 [11]) | migration inhibitory effect (Mia PaCa-2 [12]) |
| --- | --- | --- | --- | --- | --- | --- | --- | --- | --- | --- | --- | --- | --- | --- | --- |
|  |  | CC[C@H](C)[C@@H]([C@@H](CC(=O)N1CCC[C@H]1[C@H](OC)[C@@H](C)C(=O)N[C@H](C)[C@@H](O)c1ccccc1)OC)N(C)C(=O)[C@@H](NC(=O)[C@@H](NC)C(C)C)C(C)C [MMAE, Monomethyl auristatin E] (H-[NMeV]V[Dil][Dolaproine]-X1) | only mild effect | 100-1000 times |  |  |  |  |  |  |  |  |  |  |  |
| significant binding response | captured free EphA2 molecules | scFv SD5: chicken derived anti-EphA2 scFv, SEQ ID NO: 11 (light chain SEQ ID NO: 7, heavy chain SEQ ID NO: 9) (protein) scFv: LTQPSSVSANLGETVKIPCSGSSGSYGWYQQKSPGSAPVTLIYDNDKRPSDIPSRFFGSTSGSTSTLTITGVQAEDEAVYFCGSADSSTYVGMFGAGTTLTVLGQSSRSSTVTLDESGGGLQTPGGGLSLVCKASGFTFSDYGMGWVRQAPGKGLEFVAGISAAGSFTPYGAAVKGRATISRDNGQSTVRLQLNNLRSEDTGIYYCARIPSGYRAGEIYTWGQGTEVIVSS |  |  | 91% | approximately 80% | reduced effectively | 58.5% | can recognize EphA2 in the native form, but not in the denatured form | inhibited the migration of cancer cells | approximately 80% | approximately 80% | 67% | 65% | 65% |
